Data as given in article PMC8567202, “Phosphoinositide-binding activity of Smad2 is essential for its function in TGF-β signaling” (The Journal of Biological Chemistry, 2021).

How the values were obtained:
TβRI = test: Dual color single-molecule tracking, TβRI and EGFP-Smad2; format: cell-based; settings: HeLa cells with endogenous Smad2 suppressed, 10 ng/ml TGF-β
Description: Figure 4 Quantitative imaging analyses of spatiotemporal dynamics of Smad2.A, TIRF images of mouse EGFP-Smad2-WT transfected into HeLa cells whose endogenous Smad2 is suppressed by siRNA. Images were taken before and 5 min after TGF-β stimulation (10 ng/ml) with and without PI(4,5)P2 depletion. A pseudo-coloring scheme was used with orange and blue representing the highest and the lowest intensity, respectively. B, kinetics of TGF-β stimulated (10 ng/ml) PM localization of EGFP-Smad2-WT (blue), -K420A (green), and -W422A (orange) transfected into HeLa cells the endogenous Smad2 of which was suppressed by siRNA. For EGFP-Smad2-WT, the effect of PI(4,5)P2 depletion (black) and TβRI inhibition by SB-431542 (10 μM for 36 h) (red) were measured. Data points indicate average ±S.D. (n = 10 cells). C, spatially resolved PM PI(4,5)P2 concentration ([PI(4,5)P2]) profiles calculated from two-channel cross-sectional images of HeLa cells (before and 5 min after 10 ng/ml TGF-β stimulation and after PI(4,5)P2 depletion). Each cell is a representative of more than ten cells analyzed. Spatially averaged [PI(4,5)P2] values for each cell type are shown. The z-axis scale indicates [PI(4,5)P2] in mol%. A pseudo-coloring scheme with red and blue representing the highest (1.5 mol%) and the lowest (0 mol%) concentration, respectively, is used to illustrate the spatial [PI(4,5)P2] heterogeneity. Scale bars indicate 10 μm. D, dual color single-molecule tracking of EGFP-PLCδ-PH and SNAP-TMR-labeled TβRI at the PM of HeLa cells. Time courses of the half-life of colocalization for SNAP-TMR-labeled TβRI and EGFP-PLCδ-PH after 10 ng/ml TGF-β stimulation were determined with (orange) and without (blue) PI(4,5)P2 depletion. Data points indicate average ±S.D. (n = 10 cells). E, time courses of the half-life of colocalization for SNAP-TMR-labeled TβRI and EGFP-Smad2 determined by dual color single-molecule tracking analysis. Colocalization of TβRI with EGFP-Smad2-WT (blue), -K420A (green), -W422A (orange), E425K (red), Y426A (cyan), and -R427A/R428A (black) transfected into HeLa cells whose endogenous Smad2 was suppressed by siRNA is shown. For EGFP-Smad2-WT, the effect of PI(4,5)P2 depletion (purple) was measured. Data points indicate average ±S.D. (n = 10 cells). […] TEXT PRINTED IN THE PICTURE: (C) PI(4,5)P2: [PI(4,5)P2] = 1.05 ± 0.20 mol% (HeLa unstimulated); [PI(4,5)P2] = 1.00 ± 0.40 mol% (HeLa 5 min after TGFβ); [PI(4,5)P2] = 0.16 ± 0.08 mol% (HeLa After PI(4,5)P2 depletion) DOUBTS OF THE COPYIST ABOUT THIS PICTURE: Panel C: the printed values are measured membrane concentrations of PI(4,5)P2 in HeLa cells under three conditions, not an activity or property of a compound; it is uncertain whether they count as a result for a substance
Single-molecule imaging was performed using a custom-built total internal reflection fluorescence microscope as described previously. HeLa cells were plated on the 8-well chambered coverglass (Lab-Tek, Thermo Fisher Scientific) at the density of 1 × 10^5 for 24 h, EGFP-Smad2 or mutants and SNAP-tagged TβRI were cotransfected into cells using the jetPRIME system (Polyplus-transfection) according to the manufacturer's protocols. The transfected HeLa cells were serum starved for 16 h and subsequently labeled with SNAP-Cell tetramethylrhodamine (TMR)-Star (New England Biolabs). Labeled cells were washed to remove the free dye, stimulated with 10 ng/ml TGF-β, the two protein molecules were simultaneously tracked and analyzed as described. The images were spatially corrected following the algorithm described previously ([39]). All particle tracking, data analysis, and image processing were carried out with in-house programs written in MATLAB. Colocalization analysis of two molecules was performed with a fixed threshold criterion (i.e., <400 nm) for colocalization ([39]). The same size of PM surface was analyzed for each data. […]

HeLa cells = test: Nuclear translocation of EGFP-Smad2; format: cell-based; settings: HeLa cells with endogenous Smad2 suppressed, 10 ng/ml TGF-β for 1 h
Description: Two separate gels were used to accommodate all mutants. An empty vector transfection (vehicle) was used for a negative control for each gel. Glyceraldehyde 3-phosphate dehydrogenase (GAPDH) was used as a gel loading control. Data in A and B are quantified in Fig. S3A. C, TGF-β stimulated (10 ng/ml for 1 h) nuclear translocation of mouse EGFP-WT, -K420A, -W422A, -E425K, -Y426A, and -R427A/R428A transfected into HeLa cells whose endogenous Smad2 was suppressed by siRNA. For Smad2-WT, the effect of PI(4,5)P2 depletion was measured. Arrows indicate nuclear accumulation of EGFP-WT and EGFP-E425K. Scale bars indicate 10 μm. D, quantification of (C). (Inuc/Icyto) was calculated from total nuclear and cytosolic fluorescence intensity values. Blank and black bars indicate values before and after TGF-β stimulation. Error bars indicate S.D. values from >3 measurements (n = 10). E, Smad2 transcriptional activity measured by the luciferase assay. Blank and black bars indicate values before and after TGF-β stimulation. Error bars indicate S.D. values from >3 measurements (n = 10).
The ratio of nuclear to cytoplasmic protein was calculated from the fluorescence intensity of nucleus (Inuc) and the cytoplasm (Fcyto) in cross-section images of cells using the line profile function of Image-Pro Plus software (Media Cybernetics). Briefly, at least five different lines were drawn across the cross-sectional image of each cell and the average Inuc and ICyto values were calculated along the lines. Typically, more than ten cell images were analyzed for each data set to determine the average and SD values.

B1: Smad2-E425K: charge-reversal mutant of full-length Smad2; PI(4,5)P2 and TβRI binding-enhanced (protein)
chain: MSSILPFTPPVVKRLLGWKKSAGGSGGAGGGEQNGQEEKWCEKAVKSLVKKLKKTGRLDELEKAITTQNCNTKCVTIPSTCSEIWGLSTANTVDQWDTTGLYSFSEQTRSLDGRLQVSHRKGLPHVIYCRLWRWPDLHSHHELKAIENCEYAFNLKKDEVCVNPYHYQRVETPVLPPVLVPRHTEILTELPPLDDYTHSIPENTNFPAGIEPQSNYIPETPPPGYISEDGETSDQQLNQSMDTGSPAELSPTTLSPVNHSLDLQPVTYSEPAFWCSIAYYELNQRVGETFHASQPSLTVDGFTDPSNSERFCLGLLSNVNRNATVEMTRRHIGRGVRLYYIGGEVFAECLSDSAIFVQSPNCNQRYGWHPATVCKIPPGCNLKIFNNQEFAALLAQSVNQGFEAVYQLTRMCTIRMSFVKGWGAKYRRQTVTSTPCWIELHLNGPLQWLDKVLTQMGSPSVRCSSMS
modifications: left off: His6, N-terminal, state not stated
B1 was tested, and the “dynamic colocalization / dwell time with TβRI after TGF-β stimulation” value (TβRI) was “stronger interaction with TβRI in terms of both amplitude and duration” and the “nuclear transport after TGF-β stimulation” value (HeLa cells) was “excessively transported to the nucleus”.

B2: EGFP-Smad2 WT: mouse EGFP-Smad2 wild type transfected into HeLa cells (protein, UniProt Q62432 2-467, looked up)
Mothers against …: SSILPFTPPVVKRLLGWKKSAGGSGGAGGGEQNGQEEKWCEKAVKSLVKKLKKTGRLDELEKAITTQNCNTKCVTIPSTCSEIWGLSTANTVDQWDTTGLYSFSEQTRSLDGRLQVSHRKGLPHVIYCRLWRWPDLHSHHELKAIENCEYAFNLKKDEVCVNPYHYQRVETPVLPPVLVPRHTEILTELPPLDDYTHSIPENTNFPAGIEPQSNYIPETPPPGYISEDGETSDQQLNQSMDTGSPAELSPTTLSPVNHSLDLQPVTYSEPAFWCSIAYYELNQRVGETFHASQPSLTVDGFTDPSNSERFCLGLLSNVNRNATVEMTRRHIGRGVRLYYIGGEVFAECLSDSAIFVQSPNCNQRYGWHPATVCKIPPGCNLKIFNNQEFAALLAQSVNQGFEAVYQLTRMCTIRMSFVKGWGAEYRRQTVTSTPCWIELHLNGPLQWLDKVLTQMGSPSVRCSSMS
modifications: EGFP fusion
notes: mouse EGFP-Smad2 wild type transfected into HeLa cells
In the case of B2, the “time of peak colocalization with TMR-SNAP-TβRI after TGF-β stimulation” value (TβRI; n = 10 cells) is reported as 5 min and the “nuclear transport after TGF-β stimulation” value (HeLa cells) is reported as “moved from the cytoplasm to the nucleus”.
